Experiments:
[1] = biological target: T1, human Mpl expressed on BaF3 cells (BaF3-human Mpl) (human, UniProt P40238 26-635); test: cell-based or functional assay
T1 sequence: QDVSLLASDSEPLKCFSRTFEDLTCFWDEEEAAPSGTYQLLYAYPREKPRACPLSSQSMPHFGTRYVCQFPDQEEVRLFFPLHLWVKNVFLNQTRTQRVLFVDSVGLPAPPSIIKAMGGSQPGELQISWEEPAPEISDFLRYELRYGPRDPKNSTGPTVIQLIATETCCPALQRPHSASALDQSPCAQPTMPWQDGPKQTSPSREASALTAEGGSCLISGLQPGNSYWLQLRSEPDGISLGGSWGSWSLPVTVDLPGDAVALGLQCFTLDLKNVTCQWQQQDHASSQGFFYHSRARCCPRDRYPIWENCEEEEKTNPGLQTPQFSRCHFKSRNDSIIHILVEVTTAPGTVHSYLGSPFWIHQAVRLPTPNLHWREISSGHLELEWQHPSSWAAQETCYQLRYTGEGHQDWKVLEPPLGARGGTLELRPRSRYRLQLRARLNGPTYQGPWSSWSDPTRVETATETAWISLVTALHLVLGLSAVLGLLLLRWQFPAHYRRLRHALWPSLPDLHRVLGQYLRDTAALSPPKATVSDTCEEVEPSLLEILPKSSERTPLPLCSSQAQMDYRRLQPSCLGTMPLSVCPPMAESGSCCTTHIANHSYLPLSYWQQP

[2] = biological target: T2, GST fusion protein containing human Mpl MG3 (Gln26 to Ala189) (human, UniProt P40238 26-189); test: Western blotting of GST fusion protein
T2 construct: As MG1; not shown: glutathione-S-transferase of vector pGEX-4T-3 (Amersham Biosciences)
T2 sequence: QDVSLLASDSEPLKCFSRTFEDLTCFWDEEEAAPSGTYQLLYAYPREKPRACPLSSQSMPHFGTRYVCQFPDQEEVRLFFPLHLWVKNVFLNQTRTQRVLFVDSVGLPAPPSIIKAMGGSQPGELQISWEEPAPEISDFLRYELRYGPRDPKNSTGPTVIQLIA
Protocol: (§1) Since the anti-human Mpl antibody VB22B can be used for Western blotting, a GST-fusion protein containing a partial sequence of human Mpl was constructed for VB22B epitope analysis. MG1 (Gln26 to Trp491) and MG2 (Gln26 to Leu274) regions were each amplified by PCR, and cloned into pGEX-4T-3 (Amersham Biosciences) to be expressed as GST fusion proteins. The resulting plasmid DNAs were transformed into DH5α to give transformants. A final concentration of 1 mM IPTG was added to the transformants in their logarithmic growth phase to induce the expression of GST fusion proteins. The bacterial cells were harvested after two hours of incubation. The cells were lysed by sonication. The lysates were centrifuged in XL-80 Ultracentrifuge (Beckman, Rotor 70.1Ti) at 35,000 rpm for 30 min. The culture supernatants were removed, and then the fusion proteins were purified using GST Purification Modules (Amersham Biosciences). The samples were separated by 10%-SDS-PAGE, and then transferred onto a PVDF membrane. The membrane was analyzed by the murine antibody VB22B in Western Btotting.
(§2) Then, GST fusion proteins containing the respective regions of human Mpl: MG3 (Gln26 to Ala189), MG4 (Gln26 to Pro106), MG5 (Gln26 to Glu259), and MG6 (Gln26 to Gly245) were prepared and analyzed by Western blotting using the same procedure described above. […] In addition, GST was fused with MG7 (Gln26 to Ala231) and MG8 (Gln26 to Pro217) to prepare GST fusion proteins.

[3] = biological target: T3, GST fusion protein containing human Mpl MG4 (Gln26 to Pro106) (human, UniProt P40238 26-106); test: Western blotting of GST fusion protein
T3 construct: As MG1; not shown: glutathione-S-transferase of vector pGEX-4T-3 (Amersham Biosciences)
T3 sequence: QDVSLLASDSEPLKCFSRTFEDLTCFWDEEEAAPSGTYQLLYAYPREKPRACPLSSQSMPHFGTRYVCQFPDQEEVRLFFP
Protocol: as §1, §2

[4] = biological target: T4, GST fusion protein containing human Mpl MG8 (Gln26 to Pro217) (human, UniProt P40238 26-217); test: Western blotting of GST fusion protein
T4 construct: As MG1; not shown: glutathione-S-transferase of vector pGEX-4T-3 (Amersham Biosciences)
T4 sequence: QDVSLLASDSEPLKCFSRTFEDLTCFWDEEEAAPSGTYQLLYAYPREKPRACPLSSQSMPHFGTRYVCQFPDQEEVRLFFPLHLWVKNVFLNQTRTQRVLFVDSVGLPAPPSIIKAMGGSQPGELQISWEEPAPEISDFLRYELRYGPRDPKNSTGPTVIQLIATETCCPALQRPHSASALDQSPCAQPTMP
Protocol: as §1, §2

TPO-like agonistic activity, EC50 (growth of BaF3-human Mpl, WST-8) [1]: > 30 nM
binding result [2]: no binding
binding result [3]: no binding
binding result [4]: no binding
B1: anti-human Mpl antibody VB22B IgG (antibody, V domains shown)
VH: QVQLQQSGPELVKPGASVKISCKASGYAFTNSWMNWVKQRPGKGLEWIGRIYPGDGETIYNGKFRVKATLTADKSSSTAYMDISSLTSEDSAVYFCARGYDDYSFAYWGQGTLVTVSA
VL: DIVMTQAAPSIPVTPGESVSISCRSSKSLLHSNGNTYLYWFLQRPGQSPQLLIYRMSNLASGVPDRFSGSGSGTAFTLRISRVEAEDVGVYYCMQHIEYPFTFGSGTKLEIK
notes: also called murine antibody VB22B

From US20060222643A1 (Chugai, published 2006)
